Data published in patent US20120021988A1, “METHODS FOR TREATING IMMUNE THROMBOCYTOPENIA” (priority 2007, published 2012).

Assays:
[1] = target: FcγIIa (His 131 allele aka H161) (UniProt P12318); assay: reverse ELISA (repeat), PAP on FcγIIa (H131 allele)-coated plate without competitor
[2] = target: FcγIIb (UniProt P31994); assay: reverse ELISA (repeat), PAP on FcγIIb/c-coated plate without competitor
[3] = target: FCγIIIb (NA2) (UniProt O75015); assay: reverse ELISA (repeat), PAP on FcγIIIb (NA2)-coated plate without competitor
Sequence of UniProt O75015 (O75015 17-200 N65S limits assumed): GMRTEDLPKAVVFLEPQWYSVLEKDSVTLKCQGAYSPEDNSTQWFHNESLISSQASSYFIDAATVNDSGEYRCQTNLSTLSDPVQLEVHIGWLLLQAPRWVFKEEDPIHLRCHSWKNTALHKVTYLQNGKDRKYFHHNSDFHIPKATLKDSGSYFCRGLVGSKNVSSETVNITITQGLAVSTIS

[4] = target: FcγIIIa (UniProt P08637); assay: reverse ELISA, PAP on FcγIIIa-coated plate without competitor
Sequence of UniProt P08637 (P08637 17-208 limits assumed): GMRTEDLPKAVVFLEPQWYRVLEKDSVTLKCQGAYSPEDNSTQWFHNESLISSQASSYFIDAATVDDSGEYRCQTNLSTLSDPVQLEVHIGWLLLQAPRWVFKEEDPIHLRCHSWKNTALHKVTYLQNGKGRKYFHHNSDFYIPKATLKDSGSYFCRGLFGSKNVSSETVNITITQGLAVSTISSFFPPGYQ

[5] = target: FcγIIb (UniProt P31994); assay: reverse ELISA, PAP on FcγIIb-coated plate without competitor
[6] = target: human C1q (Quidel Corp.) (human) (UniProt P02745); assay: reverse ELISA, PAP on C1q-coated plate without competitor
Sequence of UniProt P02745 (P02745 23-245 limits assumed, chain 1 of 3): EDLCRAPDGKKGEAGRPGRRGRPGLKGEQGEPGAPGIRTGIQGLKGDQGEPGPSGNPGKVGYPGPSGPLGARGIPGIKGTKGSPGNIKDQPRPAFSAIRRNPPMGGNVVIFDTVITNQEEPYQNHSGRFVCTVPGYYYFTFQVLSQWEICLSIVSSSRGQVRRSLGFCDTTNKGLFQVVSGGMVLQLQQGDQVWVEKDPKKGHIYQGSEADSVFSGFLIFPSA
Sequence of UniProt P02745 (P02746 28-253 limits assumed, chain 2 of 3, further chain): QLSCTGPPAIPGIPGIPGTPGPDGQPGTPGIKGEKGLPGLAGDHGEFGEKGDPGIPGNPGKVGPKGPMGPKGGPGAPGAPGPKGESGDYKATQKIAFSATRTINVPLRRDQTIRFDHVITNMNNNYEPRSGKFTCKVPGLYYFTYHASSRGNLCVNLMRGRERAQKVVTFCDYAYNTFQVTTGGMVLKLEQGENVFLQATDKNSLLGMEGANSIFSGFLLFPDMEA
Sequence of UniProt P02745 (P02747 29-245 limits assumed, chain 3 of 3, further chain): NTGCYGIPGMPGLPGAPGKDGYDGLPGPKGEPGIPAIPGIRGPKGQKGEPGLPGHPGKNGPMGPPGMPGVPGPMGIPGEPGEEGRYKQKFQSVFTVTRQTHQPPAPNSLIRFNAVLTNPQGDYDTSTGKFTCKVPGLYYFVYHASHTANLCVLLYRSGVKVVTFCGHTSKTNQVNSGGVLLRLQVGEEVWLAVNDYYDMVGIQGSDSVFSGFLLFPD

[7] = target: FcγIIa (R131 allele) (UniProt P12318); assay: reverse ELISA, PAP on FcγIIa (R131 allele)-coated plate without competitor
[8] = target: FcγI (UniProt P12314); assay: reverse ELISA (repeat), PAP on Fcγ1-coated plate without competitor
Sequence of UniProt P12314 (P12314 16-288 limits assumed): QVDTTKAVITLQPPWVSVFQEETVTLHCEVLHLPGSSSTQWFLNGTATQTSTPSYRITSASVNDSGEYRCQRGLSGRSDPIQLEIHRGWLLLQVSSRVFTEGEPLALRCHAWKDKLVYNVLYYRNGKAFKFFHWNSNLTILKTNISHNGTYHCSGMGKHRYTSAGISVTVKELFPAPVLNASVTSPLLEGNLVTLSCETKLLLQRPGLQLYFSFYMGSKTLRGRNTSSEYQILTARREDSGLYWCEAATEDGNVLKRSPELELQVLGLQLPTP

[9] = target: PAP complex: preformed immune complex of peroxidase and rabbit anti-peroxidase IgG (horseradish) (UniProt P00433); assay: reverse ELISA competition (repeat): PAP pre-incubated with peptide, then on plate coated with FcγIIIb (NA2); signal is PAP left bound to the receptor
[10] = target: PAP complex: preformed immune complex of peroxidase and rabbit anti-peroxidase IgG (horseradish) (UniProt P00433); assay: reverse ELISA competition (repeat): inhibition by the peptide of PAP binding to immobilised Fcγ1
[11] = target: PAP complex: preformed immune complex of peroxidase and rabbit anti-peroxidase IgG (horseradish) (UniProt P00433); assay: reverse ELISA competition (repeat): inhibition by the peptide of PAP binding to immobilised FcγIIa (H131 allele)
[12] = target: PAP complex: preformed immune complex of peroxidase and rabbit anti-peroxidase IgG (horseradish) (UniProt P00433); assay: reverse ELISA competition (repeat): PAP pre-incubated with peptide, then on plate coated with Fcγ1; signal is PAP left bound to the receptor
[13] = target: PAP complex: preformed immune complex of peroxidase and rabbit anti-peroxidase IgG (horseradish) (UniProt P00433); assay: reverse ELISA competition (repeat): inhibition by the peptide of PAP binding to immobilised FcγIIb/c
[14] = target: PAP complex: preformed immune complex of peroxidase and rabbit anti-peroxidase IgG (horseradish) (UniProt P00433); assay: reverse ELISA competition: PAP pre-incubated with peptide, then on plate coated with FcγIIa (R131 allele); signal is PAP left bound to the receptor
[15] = target: PAP complex: preformed immune complex of peroxidase and rabbit anti-peroxidase IgG (horseradish) (UniProt P00433); assay: reverse ELISA competition: PAP pre-incubated with peptide, then on plate coated with FcγIIIa; signal is PAP left bound to the receptor
[16] = target: PAP complex: preformed immune complex of peroxidase and rabbit anti-peroxidase IgG (horseradish) (UniProt P00433); assay: reverse ELISA competition: PAP pre-incubated with peptide, then on plate coated with FcγIIb; signal is PAP left bound to the receptor
[17] = target: PAP complex: preformed immune complex of peroxidase and rabbit anti-peroxidase IgG (horseradish) (UniProt P00433); assay: reverse ELISA competition (repeat): PAP pre-incubated with peptide, then on plate coated with FcγIIa (H131 allele); signal is PAP left bound to the receptor
[18] = target: PAP complex: preformed immune complex of peroxidase and rabbit anti-peroxidase IgG (horseradish) (UniProt P00433); assay: reverse ELISA competition (repeat): PAP pre-incubated with peptide, then on plate coated with FcγIIb/c; signal is PAP left bound to the receptor
[19] = target: PAP complex: preformed immune complex of peroxidase and rabbit anti-peroxidase IgG (horseradish) (UniProt P00433); assay: reverse ELISA competition (repeat): inhibition by the peptide of PAP binding to immobilised FcγIIIb (NA2)
[20] = target: PAP complex: preformed immune complex of peroxidase and rabbit anti-peroxidase IgG (horseradish) (UniProt P00433); assay: reverse ELISA competition: PAP pre-incubated with peptide, then on C1q-coated plate; signal is PAP left bound to immobilised human C1q (lower = more inhibition)

Sequence of UniProt P31994 (P31994 46-217 limits assumed): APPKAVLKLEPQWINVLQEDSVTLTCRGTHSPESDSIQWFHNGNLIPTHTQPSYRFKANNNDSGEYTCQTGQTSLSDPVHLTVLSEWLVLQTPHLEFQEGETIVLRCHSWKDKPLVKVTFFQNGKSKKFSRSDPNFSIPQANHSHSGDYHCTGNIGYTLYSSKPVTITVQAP

Molecule	OD 405 nm [1] [OD 405 nm]	OD 405 nm [2] [OD 405 nm]	OD 405 nm [3] [OD 405 nm]	OD405 [4] [OD405]	OD405 [5] [OD405]	OD 405 nm [6] [OD 405 nm]	OD405 [7] [OD405]	OD 405 nm [8] [OD 405 nm]	OD 405 nm [9] [OD 405 nm]	% inhibition of IC binding [10] [%]	% inhibition of IC binding [11] [%]	OD 405 nm [12] [OD 405 nm]	% inhibition of IC binding [13] [%]	OD405 [14] [OD405]	OD405 [15] [OD405]	OD405 [16] [OD405]	OD 405 nm [17] [OD 405 nm]	OD 405 nm [18] [OD 405 nm]	% inhibition of IC binding [19] [%]	OD 405 nm [20] [OD 405 nm]
PAP complex: preformed immune complex of peroxidase and rabbit anti-peroxidase IgG (from UniProt P00433 31-338)	3.51	2.22	3.06	1.59	1.39	2.35	1.6	2.33												
APPDCAWHLGELVWCT [Peptide … (SEQ ID NO:20)]									0.266	89	94	0.264	88	0.509	0.67	0.496	0.209	0.266	91	0.389
